Data on 3 substances can be found in patent publication US20080227691A1.

The target of this assay is LRP (low density lipoprotein receptor-related protein) (human) (UniProt Q07954). Kind of assay: SPR, Biacore 3000, LRP amine-coupled to CM5 chip, A2 domain as analyte 62.5-500 nM, 1:1 Langmuir fit, 25 C.
The substance “HPC4-tagged A2 domain mutant 433D->N (from UniProt P00451 392-759) (ligand)” registered a Kd of 170 nM.
Next, “HPC4-tagged A2 domain mutant 488S->N & 490R->T (from UniProt P00451 392-759) (ligand)”: 260 nM; “HPC4-tagged A2 domain of wild-type FVIII (from UniProt P00451 392-759) (ligand)”: 20 nM.

Usually Kd stands for a measure of binding affinity in units of concentration.
